{
  "source": "patent US20210347913A1",
  "about": "(CRISPR THERAPEUTICS, published 2021)",
  "binders": {"B1": {"name": "CTX181.M6 (other)", "chain": "QGVCTYPPAHRTRFCGSSGGSGGSGGSGGGPLGLAGGSSGQVQLVESGGGVVQPGRSLRLSCAASGFTFSSYGMHWVRQAPGKGLEWVAVIWDDGSNKYYVDSVKGRFTISRDNSKNTLYLQMNSLRAEDTAVYYCARDDYYGSGSFNSYYGTDVWGQGTTVTVSSGGGGSGGGGSGGGGSEIVLTQSPATLSLSPGERATLSCRASQSVSIYLAWYQQKPGQAPRLLIYDASNRATGIPARFSGSGSGTDFTLTISSLEPEDFAVYYCQQRSNWPPFTFGPGTKVDIKSAAAFVPVFLPAKPTTTPAPRPPTPAPTIASQPLSLRPEACRPAAGGAVHTRGLDFACDIYIWAPLAGTCGVLLLSLVITLYCNHRNRSKRSRLLHSDYMNMTPRRPGPTRKHYQPYAPPRDFAAYRSRVKFSRSADAPAYQQGQNQLYNELNLGRREEYDVLDKRRGRDPEMGGKPRRKNPQEGLYNELQKDKMAEAYSEIGMKGERRRGKGHDGLYQGLSTATKDTYDALHMQALPPR", "notes": "Masked chimeric antigen receptor on the surface of TRAC-/B2M- human T cells; entry without signal peptide"}, "B2": {"name": "CTX181.M7 (other)", "chain": "QGCTMPYHIHSIGLCGSSGGSGGSGGSGGGPLGLAGGSSGQVQLVESGGGVVQPGRSLRLSCAASGFTFSSYGMHWVRQAPGKGLEWVAVIWDDGSNKYYVDSVKGRFTISRDNSKNTLYLQMNSLRAEDTAVYYCARDDYYGSGSFNSYYGTDVWGQGTTVTVSSGGGGSGGGGSGGGGSEIVLTQSPATLSLSPGERATLSCRASQSVSIYLAWYQQKPGQAPRLLIYDASNRATGIPARFSGSGSGTDFTLTISSLEPEDFAVYYCQQRSNWPPFTFGPGTKVDIKSAAAFVPVFLPAKPTTTPAPRPPTPAPTIASQPLSLRPEACRPAAGGAVHTRGLDFACDIYIWAPLAGTCGVLLLSLVITLYCNHRNRSKRSRLLHSDYMNMTPRRPGPTRKHYQPYAPPRDFAAYRSRVKFSRSADAPAYQQGQNQLYNELNLGRREEYDVLDKRRGRDPEMGGKPRRKNPQEGLYNELQKDKMAEAYSEIGMKGERRRGKGHDGLYQGLSTATKDTYDALHMQALPPR", "notes": "as for B1"}, "B3": {"name": "CTX181.M10 (other)", "chain": "QGCYIGLRMVPCFHMGSSGGSGGSGGSGGGPLGLAGGSSGQVQLVESGGGVVQPGRSLRLSCAASGFTFSSYGMHWVRQAPGKGLEWVAVIWDDGSNKYYVDSVKGRFTISRDNSKNTLYLQMNSLRAEDTAVYYCARDDYYGSGSFNSYYGTDVWGQGTTVTVSSGGGGSGGGGSGGGGSEIVLTQSPATLSLSPGERATLSCRASQSVSIYLAWYQQKPGQAPRLLIYDASNRATGIPARFSGSGSGTDFTLTISSLEPEDFAVYYCQQRSNWPPFTFGPGTKVDIKSAAAFVPVFLPAKPTTTPAPRPPTPAPTIASQPLSLRPEACRPAAGGAVHTRGLDFACDIYIWAPLAGTCGVLLLSLVITLYCNHRNRSKRSRLLHSDYMNMTPRRPGPTRKHYQPYAPPRDFAAYRSRVKFSRSADAPAYQQGQNQLYNELNLGRREEYDVLDKRRGRDPEMGGKPRRKNPQEGLYNELQKDKMAEAYSEIGMKGERRRGKGHDGLYQGLSTATKDTYDALHMQALPPR", "notes": "as for B1"}, "B4": {"name": "CTX181.M8 (other)", "chain": "B1 chain with V3W, Y6I, P8S, A9S, H10M, R11S, T12I, F14L", "notes": "as for B1"}, "B5": {"name": "CTX181.M11 (other)", "chain": "B2 chain with Y7S, I9A, H10V, S11A, I12S, G13F", "notes": "as for B1"}},
  "key": {"[1]": {"molecular_target": "T1, recombinant human PTK7.Fc (R and D Systems, catalog #9799-TK) (human, UniProt Q13308 31-704, limits assumed)", "T1 construct": "Bought reagent; also called soluble recombinant human PTK7.Fc; soluble antigen PTK7; not shown: Fc part of the bought fusion (detected with anti-human Fc)", "T1 sequence (looked up)": "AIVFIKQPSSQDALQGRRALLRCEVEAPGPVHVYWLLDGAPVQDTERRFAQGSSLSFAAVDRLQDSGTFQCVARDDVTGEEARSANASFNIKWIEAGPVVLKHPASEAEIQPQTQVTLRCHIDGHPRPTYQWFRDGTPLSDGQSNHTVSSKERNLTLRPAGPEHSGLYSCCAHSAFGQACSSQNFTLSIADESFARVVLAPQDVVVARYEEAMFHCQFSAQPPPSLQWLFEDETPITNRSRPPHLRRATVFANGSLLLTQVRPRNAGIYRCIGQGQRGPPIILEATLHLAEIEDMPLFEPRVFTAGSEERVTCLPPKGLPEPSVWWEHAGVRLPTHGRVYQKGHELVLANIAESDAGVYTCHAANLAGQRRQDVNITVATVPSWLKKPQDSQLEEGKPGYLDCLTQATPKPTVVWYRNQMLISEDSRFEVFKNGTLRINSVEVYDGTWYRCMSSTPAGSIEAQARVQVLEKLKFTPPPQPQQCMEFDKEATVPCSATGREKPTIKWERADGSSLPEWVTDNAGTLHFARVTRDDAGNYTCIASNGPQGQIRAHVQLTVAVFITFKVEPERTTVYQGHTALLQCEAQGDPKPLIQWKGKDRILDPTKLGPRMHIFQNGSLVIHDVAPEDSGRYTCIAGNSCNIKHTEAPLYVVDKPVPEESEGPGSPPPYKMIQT", "experiment": "flow cytometry, percent of CAR T cells positive for 10 ug/mL PTK7.Fc", "protocol": "In addition to detecting surface CAR expression, the ability of the CAR T cells and masked CAR T cells to detect target antigen was also determined. Live CAR T cells were gated by their forward scatter (FSC) and side scatter (SSC) profiles, and with DAPI dye (Invitrogen, catalog #: D3571). The cells were then stained with 10 μg/mL recombinant human PTK7.Fc (R and D Systems, catalog #9799-TK Lot DHMCO219041) as described above in Example 3, and with mouse anti-human.Fc conjugated to APC (Biolegend cat #409305) as secondary antibody for detection (FIG. 3)."}, "[2]": {"molecular_target": "T2, PTK7 on PTK7 positive cell line SaOS-2 (osteosarcoma) (UniProt Q13308 31-1070, limits assumed)", "T2 sequence (looked up)": "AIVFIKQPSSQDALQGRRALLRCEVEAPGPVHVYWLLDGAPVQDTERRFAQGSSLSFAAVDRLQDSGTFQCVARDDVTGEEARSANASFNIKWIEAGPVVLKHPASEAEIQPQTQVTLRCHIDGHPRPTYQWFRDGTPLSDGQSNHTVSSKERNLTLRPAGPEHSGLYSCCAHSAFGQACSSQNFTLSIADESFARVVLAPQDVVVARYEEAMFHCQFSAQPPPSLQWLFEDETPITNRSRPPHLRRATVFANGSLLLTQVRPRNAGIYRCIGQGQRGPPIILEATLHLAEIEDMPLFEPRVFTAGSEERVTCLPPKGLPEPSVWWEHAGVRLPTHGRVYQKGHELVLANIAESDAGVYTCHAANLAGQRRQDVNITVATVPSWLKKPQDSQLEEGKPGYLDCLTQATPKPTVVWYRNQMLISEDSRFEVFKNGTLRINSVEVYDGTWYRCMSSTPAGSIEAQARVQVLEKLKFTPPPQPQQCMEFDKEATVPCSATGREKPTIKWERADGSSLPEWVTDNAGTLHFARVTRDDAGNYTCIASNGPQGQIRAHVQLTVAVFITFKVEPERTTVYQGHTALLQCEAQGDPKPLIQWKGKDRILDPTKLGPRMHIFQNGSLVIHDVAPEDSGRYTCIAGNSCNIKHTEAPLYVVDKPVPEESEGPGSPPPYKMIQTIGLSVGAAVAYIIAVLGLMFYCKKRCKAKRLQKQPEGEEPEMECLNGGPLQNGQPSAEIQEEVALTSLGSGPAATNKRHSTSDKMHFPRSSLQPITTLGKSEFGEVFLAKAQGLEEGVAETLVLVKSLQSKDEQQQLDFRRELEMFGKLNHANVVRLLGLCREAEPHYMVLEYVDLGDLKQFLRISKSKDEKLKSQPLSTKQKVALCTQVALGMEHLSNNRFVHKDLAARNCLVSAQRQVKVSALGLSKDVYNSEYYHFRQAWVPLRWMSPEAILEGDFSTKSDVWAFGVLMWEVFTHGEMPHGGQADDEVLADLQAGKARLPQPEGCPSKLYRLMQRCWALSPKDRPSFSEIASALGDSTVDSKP", "experiment": "cell-based or functional assay"}, "[3]": {"molecular_target": "T2, PTK7 on PTK7 positive cell line SaOS-2 …", "experiment": "cell-based or functional assay", "remark": "listed apart in the source"}},
  "note": "Where a chain is given by its changes, count along the chain named. Numbers in names are those of the source.",
  "data": [
    {"binder": "B1", "values": [
      {"measurement": "% Antigen detection", "setting": "[1]", "result": 14.7, "unit": "%"},
      {"measurement": "IFNγ (pg/mL) at E:T = 1:0.5", "setting": "[2]", "result": 735, "unit": "pg/mL"},
      {"measurement": "IFNγ (pg/mL) at E:T = 1:1", "setting": "[2]", "result": 715, "unit": "pg/mL"},
      {"measurement": "% Cell killing at E:T = 1:0.5", "setting": "[3]", "result": 42.4, "unit": "%"},
      {"measurement": "% Cell killing at E:T = 1:1", "setting": "[3]", "result": 13.9, "unit": "%"}
    ]},
    {"binder": "B2", "values": [
      {"measurement": "% Antigen detection", "setting": "[1]", "result": 28, "unit": "%"},
      {"measurement": "IFNγ (pg/mL) at E:T = 1:0.5", "setting": "[2]", "result": 885, "unit": "pg/mL"},
      {"measurement": "IFNγ (pg/mL) at E:T = 1:1", "setting": "[2]", "result": 830, "unit": "pg/mL"},
      {"measurement": "% Cell killing at E:T = 1:0.5", "setting": "[3]", "result": 37.5, "unit": "%"},
      {"measurement": "% Cell killing at E:T = 1:1", "setting": "[3]", "result": 10.2, "unit": "%"}
    ]},
    {"binder": "B3", "values": [
      {"measurement": "% Antigen detection", "setting": "[1]", "result": 28, "unit": "%"},
      {"measurement": "IFNγ (pg/mL) at E:T = 1:0.5", "setting": "[2]", "result": 2110, "unit": "pg/mL"},
      {"measurement": "IFNγ (pg/mL) at E:T = 1:1", "setting": "[2]", "result": 1880, "unit": "pg/mL"},
      {"measurement": "% Cell killing at E:T = 1:0.5", "setting": "[3]", "result": 32.7, "unit": "%"},
      {"measurement": "% Cell killing at E:T = 1:1", "setting": "[3]", "result": 25.8, "unit": "%"}
    ]},
    {"binder": "B4", "values": [
      {"measurement": "% Antigen detection", "setting": "[1]", "result": 20.2, "unit": "%"},
      {"measurement": "IFNγ (pg/mL) at E:T = 1:0.5", "setting": "[2]", "result": 400, "unit": "pg/mL"},
      {"measurement": "IFNγ (pg/mL) at E:T = 1:1", "setting": "[2]", "result": 443, "unit": "pg/mL"},
      {"measurement": "% Cell killing at E:T = 1:0.5", "setting": "[3]", "result": 15.4, "unit": "%"},
      {"measurement": "% Cell killing at E:T = 1:1", "setting": "[3]", "result": 3.9, "unit": "%"}
    ]},
    {"binder": "B5", "values": [
      {"measurement": "% Antigen detection", "setting": "[1]", "result": 30.3, "unit": "%"},
      {"measurement": "IFNγ (pg/mL) at E:T = 1:0.5", "setting": "[2]", "result": 884, "unit": "pg/mL"},
      {"measurement": "IFNγ (pg/mL) at E:T = 1:1", "setting": "[2]", "result": 887, "unit": "pg/mL"},
      {"measurement": "% Cell killing at E:T = 1:0.5", "setting": "[3]", "result": 20.1, "unit": "%"},
      {"measurement": "% Cell killing at E:T = 1:1", "setting": "[3]", "result": 12.7, "unit": "%"}
    ]}
  ]
}
